The supplement of paper PMC12764529
± gives the half width of the 95% confidence interval.

Key:
[1] = folding stability dG unfold from trypsin proteolysis; higher = more stable
In short: (§1)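 Only designs with AlphaFold2 dimer inter-PAE above 15 were retained; each was a mini-protein under 80 residues with no cysteine, in a PA-tagged cDNA display construct. After digestion with trypsin and chymotrypsin and sequencing, K50 was inferred by Bayesian fitting of counts, and unfolding free energy was derived per protease or combined against a sequence-predicted unfolded-state K50 and a shared folded-state K50.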

[2] = folding stability dG unfold (combined trypsin and chymotrypsin); higher = more stable
In short: as §1

[3] = folding stability dG unfold from chymotrypsin proteolysis; higher = more stable
In short: as §1

Row | Sequence | folding stability dG unfold [1] [kcal/mol] | folding stability dG unfold [2] [kcal/mol] | folding stability dG unfold [3] [kcal/mol]
1 | SAGGKEVYKVEIEVRLVKVPPGATVTLEEENGELTLTVTAPPGEEVLVIRIKVEKVKLPKPEKKKKKKSAGG [r13_804_TrROS_Hall] | 2.22 ± 0.27 | 2.79 ± 0.45 | 3.45 ± 0.18
2 | SAGGWRIKLERDPENGKIKVSIERSPNEGYATVEVKLPNGKPLEIPGPMDSPDEMEEKARDYIKKLLSAGGS [r16_319_TrROS] | 0.777 ± 0.09 | 0.991 ± 0.1 | 1.01 ± 0.086
3 | SAGGSAGGPEIRITEARRDPNGMFTFIVEIPPEDLDNIKPGEEIEITFNGQEFNFNVQIIPADDSAGGSAGG [r6_373_TrROS] | 0.257 ± 0.14 | 0.716 ± 0.29 | 1.13 ± 0.2
4 | SAGGSAGGSAGGSEELLKKNPNYIIVKKVEKVLEAKTPSGKKYTIKTTIYIITKPNELPSAGGSAGGSAGGS [r10_0_JUSTAS] | 1.52 ± 0.099 | 1.84 ± 0.21 | 2.13 ± 0.14
5 | SAGGSAGGSAGPPPFKLKIDEMEMADDMFRIKLTIEDPNGEVTVDYWIGNQPFKLRIKPDSAGGSAGGSAGG [r17_45_TrROS] | 1.53 ± 0.039 | 2.12 ± 0.17 | 2.39 ± 0.17
6 | SAGGSAGGSAGIKTESLEEALEYVKKTFPPGTKVEIVVEGDGKPIKITVTVLENGEIKVESAGGSAGGSAGG [r17_69_TrMRF] | 3.97 ± 0.16 | 3.58 ± 0.12 | 3.24 ± 0.036
7 | SARPLVVTNPKGSTVRLDPSTGTAEFRNLVTGETVTAKVKPVPNGVLVEVEEGGVKKTFVVPEDGKIVLGSA [r9_239_TrMRF] | 0.172 ± 0.052 | -0.0287 ± 0.066 | -0.372 ± 0.087
8 | SAGGSAGGMPVTPEEARAIAEELRAELGATTVEVEVSPDGRTVTITITSSEDGKVLTRTIEFEASAGGSAGG [r6_550_JUSTAS] | 2.25 ± 0.091 | 2.29 ± 0.059 | 2.33 ± 0.036
9 | SAGGMPTYTITITSPETGELKELPPNISQTFDPNNVTYYTFTSEEEAKEAIKLIAPQNGWKVTITSSSAGGS [r8_131_JUSTAS] | 1.37 ± 0.22 | 0.89 ± 0.35 | -0.14 ± 0.52
10 | SASTSSISTETESRKISSFTVGDKEYEIYENTTTTTLPDGSVVTTTTLSVKDPSSNVTKTLSSTTTFTPSAG [r14_195_JUSTAS] | 2.09 ± 0.044 | 2.32 ± 0.12 | 2.49 ± 0.03
11 | SALDAKEIAEEFMKKFPPNFRDITVDVENTGNKRKIKIMFRMPNRYWTQEFDLDDGKIEIEPINPGQPLSAG [r14_737_TrROS] | 0.862 ± 0.091 | 0.672 ± 0.066 | 0.368 ± 0.15
12 | SAPDAKVEFNPKLVRKGDELLLLVEVKLSPDVDEVVVEIEVTGPDGSPFKVEAVQFPETGTVLVKAVLPASA [r9_159_TrMRF] | 1.33 ± 0.078 | 1.75 ± 0.094 | 2.04 ± 0.061
13 | SPNFERYEHTIEIELPNGRRIKIDVEMYRPPDGNPWARIKIEVEDNNGEPKKKDIWMPMNDAEKAIEDLLSA [r9_189_TrROS] | 1.9 ± 0.14 | 1.99 ± 0.43 | 1.85 ± 0.093
14 | SDKIVKLIKKIMEEMGLPITKITDVEPGWIVIRMPNGWKIDIEIDPDDPDVIDIKWQPDPNGGMYMVIPVSA [r9_809_TrROS] | 2.03 ± 0.078 | 2.6 ± 0.21 | 2.65 ± 0.069
15 | SAGAQPIKLKLVDPNGWEIDDIEIEYSPNGMYMIGIENPDNGRPMHIQYNPDDGKIEIRWPNGKLFEIESAG [r5_809_TrROS] | 0.713 ± 0.041 | 0.841 ± 0.12 | 0.902 ± 0.13
16 | SAGGMKIEIKIIDEETGEEITITVTMTPEEIEKLAKELEEKYPGLEIVSVEIEEKDGEIIITIKIKKKSAGG [r13_196_TrROS_Hall] | 3.75 ± 0.25 | 3.29 ± 0.21 | 2.71 ± 0.071
17 | SMMKVKVRITFEDGEEVEIEIEMSREELKNKIEELIKELAEKEGKEVKEVKIEIVDEKTNETYTFTIKVKSA [r9_1193_TrROS_Hall] | 4.14 ± 0.19 | 3.65 ± 0.3 | 3.92 ± 0.088
18 | SAGGKIPISPEALKALDEALKNGDKGDTIPIQTPDGHYIVITPNGRMRFHNGNEREFPIGKIKAIIWSAGGS [r16_664_TrROS] | -0.149 ± 0.14 | 0.156 ± 0.12 | 0.241 ± 0.2
19 | SAGGSAGGSAGKIKIVKDEKTGEYKLVVYDKNGKKVKTITLSKEELEKNPELLKKLLEELSAGGSAGGSAGG [r17_496_TrROS_Hall] | 3.52 ± 0.27 | 4.51 ± 0.17 | 4.56 ± 0.15
20 | SAGGSAGGSAGKIVILVEPSVEELKAAAEALPGAKVTLEEVEVDGRKYLLATIELPPELLSAGGSAGGSAGG [r17_542_TrROS_Hall] | 2.17 ± 0.074 | 2.23 ± 0.07 | 2.27 ± 0.033
21 | SAGGSKEYEVKIVKIKEVKVENGKVYIKLEVEVRDKKTGKLLPSAEELAKELKKKFPNLKIEVKKPSAGGSA [r2_27_TrROS_Hall] | 2.24 ± 0.13 | 2.42 ± 0.24 | 2.4 ± 0.12
